The results in this text go back to article PMC6365968 (Cell, 2018).

As usually defined, the stoichiometry N is a count of units in the complex or per binding partner. As usually defined, the Kd is the equilibrium constant for the complex coming apart.

Series [1] deals with the molecule itself. Kind of series: SEC-MALS. On the technique in general: Size exclusion chromatography separates by hydrodynamic size, large species first.
Series [2] concerns the target T1, mouse LAG3-Ig (Fc-tagged mouse LAG3 extracellular domain fusion protein) (mouse, UniProt Q61790 24-442).
T1 sequence (looked up): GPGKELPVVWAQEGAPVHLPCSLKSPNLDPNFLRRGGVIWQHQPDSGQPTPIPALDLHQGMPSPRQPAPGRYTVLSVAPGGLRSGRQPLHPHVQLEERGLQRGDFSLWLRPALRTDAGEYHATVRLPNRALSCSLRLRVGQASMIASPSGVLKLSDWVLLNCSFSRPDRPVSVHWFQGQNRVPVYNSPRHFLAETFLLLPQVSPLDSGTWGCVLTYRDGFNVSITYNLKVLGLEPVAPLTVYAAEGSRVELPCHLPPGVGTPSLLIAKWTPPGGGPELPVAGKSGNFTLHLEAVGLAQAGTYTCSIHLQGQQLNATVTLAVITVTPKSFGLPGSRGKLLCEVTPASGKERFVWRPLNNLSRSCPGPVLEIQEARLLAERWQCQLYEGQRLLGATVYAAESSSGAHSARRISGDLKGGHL
Kind of series: BLI. On the technique in general: In BLI a coated tip is dipped into the sample, and binding shifts an interference pattern.

Series [3] deals with T2, human LAG3-Ig (immunoglobulin Fc-tagged LAG3 extracellular domain fusion protein) (human, UniProt P18627 23-450).
T2 sequence (looked up): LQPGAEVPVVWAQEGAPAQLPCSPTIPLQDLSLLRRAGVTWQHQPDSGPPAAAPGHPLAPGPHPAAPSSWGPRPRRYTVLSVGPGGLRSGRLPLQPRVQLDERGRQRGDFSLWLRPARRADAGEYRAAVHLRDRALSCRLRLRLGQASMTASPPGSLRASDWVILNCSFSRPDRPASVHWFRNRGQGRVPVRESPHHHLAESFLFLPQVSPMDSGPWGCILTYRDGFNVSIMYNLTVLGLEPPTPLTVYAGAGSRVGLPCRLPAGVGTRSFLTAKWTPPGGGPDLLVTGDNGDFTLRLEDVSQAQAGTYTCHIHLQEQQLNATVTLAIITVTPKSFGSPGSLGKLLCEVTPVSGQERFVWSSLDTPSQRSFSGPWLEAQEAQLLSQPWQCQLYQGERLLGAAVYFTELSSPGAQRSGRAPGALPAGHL
Kind of series: BLI.

B1: FLAG-tagged mouse FGL1 (ligand, UniProt Q71KU9 23-314, looked up)
chain: LESESCLREQVRLRAQVHQLETRVKQQQTMIAQLLHEKEVQFLDKGSENSFIDLGGKRQYADCSEIYNDGFKQSGFYKIKPLQSLAEFSVYCDMSDGGGWTVIQRRSDGSENFNRGWNDYENGFGNFVQNNGEYWLGNKNINLLTIQGDYTLKIDLTDFEKNSSFAQYQSFKVGDKKSFYELNIGEYSGTAGDSLSGTFHPEVQWWASHQRMKFSTWDRDNDNYQGNCAEEEQSGWWFNRCHSANLNGVYYRGSYRAETDNGVVWYTWHGWWYSLKSVVMKIRPSDFIPNII
Regarding B1, the “stoichiometry N” value in series [1] is 2. Also, in series [2], the Kd was roughly 1.5 nM.

B2: FLAG-tagged human FGL1 (ligand, UniProt Q08830 23-312, looked up)
chain: LEDCAQEQMRLRAQVRLLETRVKQQQVKIKQLLQENEVQFLDKGDENTVIDLGSKRQYADCSEIFNDGYKLSGFYKIKPLQSPAEFSVYCDMSDGGGWTVIQRRSDGSENFNRGWKDYENGFGNFVQKHGEYWLGNKNLHFLTTQEDYTLKIDLADFEKNSRYAQYKNFKVGDEKNFYELNIGEYSGTAGDSLAGNFHPEVQWWASHQRMKFSTWDRDHDNYEGNCAEEDQSGWWFNRCHSANLNGVYYSGPYTAKTDNGIVWYTWHGWWYSLKSVVMKIRPNDFIPNVI
Turning to B2, the binding result in series [3] was “binds”.
